# Source: patent US20240148885A1, “TARGETED BIFUNCTIONAL DEGRADERS” (YALE UNIVERSITY, priority 2021, published 2024)
# Like-named read-outs stand apart in the source and are kept apart here.
# Assays:
# streptavidin AF647 = streptavidin AF647 (Streptomyces avidinii, UniProt P22629); test: Saturable delivery (uptake) of streptavidin AF647 (FIG. 6); format: cell-based; conditions: increasing concentration of bifunctional molecule, cells not given
# streptavidin = streptavidin (Streptomyces avidinii, UniProt P22629); test: ELISA: biotinylated Angiopep-2 binding to streptavidin (FIG. 7)
# astrocytes = test: Cellular assay: internalization of streptavidin in astrocytes (FIG. 9); format: cell-based; conditions: noncovalently bound cargo
# [1] = tested on: murine brain endothelial cells; conditions: noncovalently bound streptavidin AF647 cargo, FIG. 8, FIG. 9
# streptavidin AF488 = streptavidin AF488 (Streptomyces avidinii, UniProt P22629); test: Degradation of streptavidin AF488 (FIG. 12); format: cell-based
# Source text: Some studies have been done on other bifunctional molecules comprising an LRP1 binding motif depicted in FIG. 2 and a biotin Target binding motif, wherein these bifunctional molecules also noncovalently bind streptavidin (FIG. 11).
# Sequence of streptavidin AF647 (P22629 25-183): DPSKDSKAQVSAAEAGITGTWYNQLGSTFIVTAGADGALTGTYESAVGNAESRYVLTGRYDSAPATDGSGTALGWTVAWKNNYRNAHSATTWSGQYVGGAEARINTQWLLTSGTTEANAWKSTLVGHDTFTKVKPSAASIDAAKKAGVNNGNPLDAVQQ
# Sequence of streptavidin AF488 (P22629 25-183): as above
# Sequence of streptavidin (P22629 25-183, species assumed): as the sequence (P22629 25-183) above
Substance,level of streptavidin AF647 uptake (streptavidin AF647),binding to streptavidin (ELISA) (streptavidin),internalization of streptavidin into astrocytes (astrocytes),delivery / internalization of streptavidin into brain endothelial cells [1],delivery / internalization of streptavidin into brain endothelial cells ([1]; listed as Angiopep-2-Biotin),degradation of target protein streptavidin AF488 (streptavidin AF488)
biotinylated Angiopep-2,saturable delivery of streptavidin AF647,binds streptavidin,mediated internalization of target protein Streptavidin,delivers streptavidin AF647 to murine brain endothelial cells,mediated internalization of target protein Streptavidin,
Ac.Ac.Biotin Angiopep-2: Angiopep-2 modified via acetylation and bonded to a biotin Target binding motif,,,,,,mediated degradation of streptavidin AF488
